Experimental data reported in patent US20210139548A1 (published 2021).
*1 amine or outer side, *2 acyl side, *3 side chain or, on linkers, in order; H or OH if unused. Side-chain parts run from the residue outwards. The star is where a group is joined. C18 diacid = O=C(O)CCCCCCCCCCCCCCCCC(=O)*; γGlu = O=C(O)[C@H](CCC(=O)[*:2])N[*:1]; Isovaleryl = CC(C)CC(=O)*; AEEA = NCCOCCOCC(=O)O

T1: human neuropeptide Y2 receptor (human, UniProt P49146 1-381)
T1 sequence (looked up): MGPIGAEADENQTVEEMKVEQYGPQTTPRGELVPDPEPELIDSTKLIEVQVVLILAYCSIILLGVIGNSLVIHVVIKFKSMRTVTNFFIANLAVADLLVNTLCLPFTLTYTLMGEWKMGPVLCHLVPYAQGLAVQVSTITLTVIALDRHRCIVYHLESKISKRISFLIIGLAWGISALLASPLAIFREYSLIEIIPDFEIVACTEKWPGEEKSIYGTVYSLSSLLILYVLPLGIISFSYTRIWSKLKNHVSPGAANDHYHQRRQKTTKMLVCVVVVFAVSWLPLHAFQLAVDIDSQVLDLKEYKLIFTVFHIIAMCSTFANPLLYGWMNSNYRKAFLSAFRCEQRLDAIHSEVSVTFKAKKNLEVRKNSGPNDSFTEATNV

T2: human NPY5 receptor (human, UniProt Q15761 1-445)
T2 sequence (looked up): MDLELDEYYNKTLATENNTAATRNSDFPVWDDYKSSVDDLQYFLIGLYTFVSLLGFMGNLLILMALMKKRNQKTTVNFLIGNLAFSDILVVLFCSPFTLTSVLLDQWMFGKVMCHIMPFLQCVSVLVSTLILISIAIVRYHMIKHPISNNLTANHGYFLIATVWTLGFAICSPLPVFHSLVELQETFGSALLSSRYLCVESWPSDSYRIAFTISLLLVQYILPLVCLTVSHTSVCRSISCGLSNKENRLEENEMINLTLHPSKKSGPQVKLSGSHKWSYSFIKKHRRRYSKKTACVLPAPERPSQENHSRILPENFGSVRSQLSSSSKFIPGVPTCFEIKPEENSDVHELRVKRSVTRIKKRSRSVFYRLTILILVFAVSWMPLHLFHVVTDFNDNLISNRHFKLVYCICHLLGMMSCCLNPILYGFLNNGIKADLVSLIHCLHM

T3: human NPY1 receptor (human, UniProt P25929 1-384)
T3 sequence (looked up): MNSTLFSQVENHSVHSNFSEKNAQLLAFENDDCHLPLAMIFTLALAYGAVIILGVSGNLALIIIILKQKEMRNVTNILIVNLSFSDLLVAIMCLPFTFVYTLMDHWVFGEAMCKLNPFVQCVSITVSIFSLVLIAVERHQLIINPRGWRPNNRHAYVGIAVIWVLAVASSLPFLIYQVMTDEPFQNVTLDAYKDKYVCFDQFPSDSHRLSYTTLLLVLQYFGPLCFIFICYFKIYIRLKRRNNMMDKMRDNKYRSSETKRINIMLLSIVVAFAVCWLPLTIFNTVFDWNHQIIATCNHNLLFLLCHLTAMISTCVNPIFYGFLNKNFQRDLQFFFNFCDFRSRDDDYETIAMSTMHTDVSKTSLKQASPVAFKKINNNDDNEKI


Key:
[1] = molecular target: T1, human neuropeptide Y2 receptor; assay: cell-based or functional assay
human NPY5 receptor = molecular target: T2, human NPY5 receptor; assay: cell-based or functional assay
human NPY1 receptor = molecular target: T3, human NPY1 receptor; assay: cell-based or functional assay
human NPY4 receptor = human NPY4 receptor (human, UniProt P50391 1-375); assay: cell-based or functional assay
human NPY4 receptor, sequence (P50391 whole entry): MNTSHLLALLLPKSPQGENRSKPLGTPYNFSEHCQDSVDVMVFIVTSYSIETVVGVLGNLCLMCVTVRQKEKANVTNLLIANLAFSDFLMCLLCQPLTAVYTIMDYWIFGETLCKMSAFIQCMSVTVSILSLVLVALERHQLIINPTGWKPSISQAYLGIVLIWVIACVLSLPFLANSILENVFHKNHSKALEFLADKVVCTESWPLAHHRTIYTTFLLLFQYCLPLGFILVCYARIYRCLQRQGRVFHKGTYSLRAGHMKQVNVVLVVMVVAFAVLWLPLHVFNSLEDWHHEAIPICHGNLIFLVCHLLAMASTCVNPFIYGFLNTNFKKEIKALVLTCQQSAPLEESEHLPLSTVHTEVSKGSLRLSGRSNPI

[2] = molecular target: T1, human neuropeptide Y2 receptor; assay: radioligand competition (125I-PYY(1-36)), hNPY2R membranes
Method in brief: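 Commercial human Y2 receptor membranes (0.5 μg protein/well) were incubated with peptide for 2 h at room temperature in 50 mM HEPES, 5 mM MgCl₂, 1 mM CaCl₂, pH 7.4, with 0.2% ovalbumin. Bound radioligand was separated on PEI-soaked GF/C filters and counted by scintillation, and IC₅₀ came from nonlinear sigmoidal regression.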

Binder | EC50 (HTRF cAMP Gi assay) [1] [nM] | EC50 (HTRF cAMP Gi assay) (human NPY5 receptor) [nM] | EC50 (HTRF cAMP Gi assay) (human NPY1 receptor) [nM] | EC50 (HTRF cAMP Gi assay) (human NPY4 receptor) [nM] | Ki [2] [nM]
Isovaleryl-APEK([AEEA-AEEA-γGlu-C18 diacid])PEEEATPEELQRYYVSLRHYYNWLTRQRY-NH2 (SMILES CC(C)CC(=O)N[C@@H](C)C(=O)N1CCC[C@H]1C(=O)N[C@@H](CCC(=O)O)C(=O)N[C@@H](CCCCNC(=O)COCCOCCNC(=O)COCCOCCNC(=O)CC[C@H](NC(=O)CCCCCCCCCCCCCCCCC(=O)O)C(=O)O)C(=O)N1CCC[C@H]1C(=O)N[C@@H](CCC(=O)O)C(=O)N[C@@H](CCC(=O)O)C(=O)N[C@@H](CCC(=O)O)C(=O)N[C@@H](C)C(=O)N[C@H](C(=O)N1CCC[C@H]1C(=O)N[C@@H](CCC(=O)O)C(=O)N[C@@H](CCC(=O)O)C(=O)N[C@@H](CC(C)C)C(=O)N[C@@H](CCC(N)=O)C(=O)N[C@@H](CCCNC(=N)N)C(=O)N[C@@H](Cc1ccc(O)cc1)C(=O)N[C@@H](Cc1ccc(O)cc1)C(=O)N[C@H](C(=O)N[C@@H](CO)C(=O)N[C@@H](CC(C)C)C(=O)N[C@@H](CCCNC(=N)N)C(=O)N[C@@H](Cc1c[nH]cn1)C(=O)N[C@@H](Cc1ccc(O)cc1)C(=O)N[C@@H](Cc1ccc(O)cc1)C(=O)N[C@@H](CC(N)=O)C(=O)N[C@@H](Cc1c[nH]c2ccccc12)C(=O)N[C@@H](CC(C)C)C(=O)N[C@H](C(=O)N[C@@H](CCCNC(=N)N)C(=O)N[C@@H](CCC(N)=O)C(=O)N[C@@H](CCCNC(=N)N)C(=O)N[C@@H](Cc1ccc(O)cc1)C(N)=O)[C@@H](C)O)C(C)C)[C@@H](C)O) [Compound 41] | 0.159 | > 5000 | > 5000 | > 5000 | 3.22
Isovaleryl-APEK([AEEA-AEEA-γGlu-C18 diacid])PEEEASPEELQRYYVSLRHYYNWLTRQRY-NH2 (SMILES CC(C)CC(=O)N[C@@H](C)C(=O)N1CCC[C@H]1C(=O)N[C@@H](CCC(=O)O)C(=O)N[C@@H](CCCCNC(=O)COCCOCCNC(=O)COCCOCCNC(=O)CC[C@H](NC(=O)CCCCCCCCCCCCCCCCC(=O)O)C(=O)O)C(=O)N1CCC[C@H]1C(=O)N[C@@H](CCC(=O)O)C(=O)N[C@@H](CCC(=O)O)C(=O)N[C@@H](CCC(=O)O)C(=O)N[C@@H](C)C(=O)N[C@@H](CO)C(=O)N1CCC[C@H]1C(=O)N[C@@H](CCC(=O)O)C(=O)N[C@@H](CCC(=O)O)C(=O)N[C@@H](CC(C)C)C(=O)N[C@@H](CCC(N)=O)C(=O)N[C@@H](CCCNC(=N)N)C(=O)N[C@@H](Cc1ccc(O)cc1)C(=O)N[C@@H](Cc1ccc(O)cc1)C(=O)N[C@H](C(=O)N[C@@H](CO)C(=O)N[C@@H](CC(C)C)C(=O)N[C@@H](CCCNC(=N)N)C(=O)N[C@@H](Cc1c[nH]cn1)C(=O)N[C@@H](Cc1ccc(O)cc1)C(=O)N[C@@H](Cc1ccc(O)cc1)C(=O)N[C@@H](CC(N)=O)C(=O)N[C@@H](Cc1c[nH]c2ccccc12)C(=O)N[C@@H](CC(C)C)C(=O)N[C@H](C(=O)N[C@@H](CCCNC(=N)N)C(=O)N[C@@H](CCC(N)=O)C(=O)N[C@@H](CCCNC(=N)N)C(=O)N[C@@H](Cc1ccc(O)cc1)C(N)=O)[C@@H](C)O)C(C)C) [Compound 46] | 0.152 | > 5000 | > 5000 | > 5000 | 3.3
Isovaleryl-APEK([AEEA-AEEA-γGlu-C18 diacid])PEEDAEPEELQEYYVSLRHYYNWLTRQRY-NH2 (SMILES CC(C)CC(=O)N[C@@H](C)C(=O)N1CCC[C@H]1C(=O)N[C@@H](CCC(=O)O)C(=O)N[C@@H](CCCCNC(=O)COCCOCCNC(=O)COCCOCCNC(=O)CC[C@H](NC(=O)CCCCCCCCCCCCCCCCC(=O)O)C(=O)O)C(=O)N1CCC[C@H]1C(=O)N[C@@H](CCC(=O)O)C(=O)N[C@@H](CCC(=O)O)C(=O)N[C@@H](CC(=O)O)C(=O)N[C@@H](C)C(=O)N[C@@H](CCC(=O)O)C(=O)N1CCC[C@H]1C(=O)N[C@@H](CCC(=O)O)C(=O)N[C@@H](CCC(=O)O)C(=O)N[C@@H](CC(C)C)C(=O)N[C@@H](CCC(N)=O)C(=O)N[C@@H](CCC(=O)O)C(=O)N[C@@H](Cc1ccc(O)cc1)C(=O)N[C@@H](Cc1ccc(O)cc1)C(=O)N[C@H](C(=O)N[C@@H](CO)C(=O)N[C@@H](CC(C)C)C(=O)N[C@@H](CCCNC(=N)N)C(=O)N[C@@H](Cc1c[nH]cn1)C(=O)N[C@@H](Cc1ccc(O)cc1)C(=O)N[C@@H](Cc1ccc(O)cc1)C(=O)N[C@@H](CC(N)=O)C(=O)N[C@@H](Cc1c[nH]c2ccccc12)C(=O)N[C@@H](CC(C)C)C(=O)N[C@H](C(=O)N[C@@H](CCCNC(=N)N)C(=O)N[C@@H](CCC(N)=O)C(=O)N[C@@H](CCCNC(=N)N)C(=O)N[C@@H](Cc1ccc(O)cc1)C(N)=O)[C@@H](C)O)C(C)C) [Compound 105] | 0.284 | > 5000 | > 5000 | > 5000 | 6.94
Isovaleryl-APEK([AEEA-AEEA-γGlu-C18 diacid])PEEDASEEELQEYYVSLRHYYNWLTRQRY-NH2 (SMILES CC(C)CC(=O)N[C@@H](C)C(=O)N1CCC[C@H]1C(=O)N[C@@H](CCC(=O)O)C(=O)N[C@@H](CCCCNC(=O)COCCOCCNC(=O)COCCOCCNC(=O)CC[C@H](NC(=O)CCCCCCCCCCCCCCCCC(=O)O)C(=O)O)C(=O)N1CCC[C@H]1C(=O)N[C@@H](CCC(=O)O)C(=O)N[C@@H](CCC(=O)O)C(=O)N[C@@H](CC(=O)O)C(=O)N[C@@H](C)C(=O)N[C@@H](CO)C(=O)N[C@@H](CCC(=O)O)C(=O)N[C@@H](CCC(=O)O)C(=O)N[C@@H](CCC(=O)O)C(=O)N[C@@H](CC(C)C)C(=O)N[C@@H](CCC(N)=O)C(=O)N[C@@H](CCC(=O)O)C(=O)N[C@@H](Cc1ccc(O)cc1)C(=O)N[C@@H](Cc1ccc(O)cc1)C(=O)N[C@H](C(=O)N[C@@H](CO)C(=O)N[C@@H](CC(C)C)C(=O)N[C@@H](CCCNC(=N)N)C(=O)N[C@@H](Cc1c[nH]cn1)C(=O)N[C@@H](Cc1ccc(O)cc1)C(=O)N[C@@H](Cc1ccc(O)cc1)C(=O)N[C@@H](CC(N)=O)C(=O)N[C@@H](Cc1c[nH]c2ccccc12)C(=O)N[C@@H](CC(C)C)C(=O)N[C@H](C(=O)N[C@@H](CCCNC(=N)N)C(=O)N[C@@H](CCC(N)=O)C(=O)N[C@@H](CCCNC(=N)N)C(=O)N[C@@H](Cc1ccc(O)cc1)C(N)=O)[C@@H](C)O)C(C)C) [Compound 164] | 0.235 | > 5000 | > 5000 | > 5000 | 4.33
